# In the nanobody polyreactivity screen of Harvey et al. (2022):
# Assay: yeast display, Sf9 membrane polyspecificity reagent, FACS + sequencing; frameworks hold sequencing errors
# Method in brief: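 A nanobody's polyreactivity label depends on the gate it was sorted from. Yeast display cells were stained with 10% biotinylated, detergent-solubilized Sf9 membrane reagent for 1 hour at 4 °C, enriched on streptavidin microbeads and sorted by FACS. The low and high (top ~1%) gates were set on anti-HA fluorescence for expression and streptavidin fluorescence for reagent binding.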
row,Sequence,polyreactivity (PSR sort gate)
1,QVQLVESGGGLVQAGGSLRLSCAASGSIFGPNAMRWYRQAPGKERELVAAINGGTGTFYADSLKGRFTISRDNAKNTVYLQMNSLKPEDTAVYYCAADYGTHYFVRYYYWGQGTQVTVSS,high polyreactivity
2,QVQLVESGGGLVQAGGSLRLSCAASGSIFGPYAMGWYRQAPGKERELVATISSGGNTNYADSVKGRFTISRDNAKNTVYLQMNSLKPEDTAVYYCAADYTWSVYWWVDYWGQGTQVTVSS,low polyreactivity
3,QVQLVESGGGLVQAGGSLRLSCAASGSIFGPYAMGWYRQAPGKERELVATITTNGGSTYYADSVKGRFTISRDNAKNTVYLQMNSLKPEDTAVYYCATQHTDYVGAATTYNYWGQGTQVTVSS,low polyreactivity
4,QVQLVESGGGLVQAGGSLRLSCAASGSIFGRNAKGSYRQAPGKERELVAAITVSGGRTYYADSVKGRFTISRDNAKNTVYLQMNSLKPEDTAVYYCNKYPVYRAVYGGGYEYWGQGTQVTVSS,high polyreactivity
5,QVQLVESGGGLVQAGGSLRLSCAASGSIFGRNAMGLYRQAPGKERELVAAITDGGNTNYADSVKGRFTISRDNAKNTVYLQMNSLNPEDTAVYYCAARIPGTYGGRYGYDYWGQGTQVTVSS,low polyreactivity
6,QVQLVESGGGLVQAGGSLRLSCAASGSIFGRNAMGWYRPAPGKERELVAAISRRGGNTYYADSVKGRFTISRDNAKNTVYLQMNSLKPEDTAVYYCAAEVKTSYSYTHDGYWGQGTQVTVSS,high polyreactivity
7,QVQLVESGGGLVQAGGSLRLSCAASGSIFGRNAMGWYRQAPGKEREIVAAISQRGGRTYYADSVKGRFTISRDNAKNTVYLQMNRLKPEDTAVYYCAATYTRVPNRFYYWGQGTQVTVSS,high polyreactivity
8,QVQLVESGGGLVQAGGSLRLSCAASGSIFGRNAMGWYRQAPGKERELVAAISGRASSTFYADSVKGRFTISRDNAKNTVYLQMNSLKPEDTAVYYCAARNSYGGPTYEHYYWGQGTQVTVSS,high polyreactivity
9,QVQLVESGGGLVQAGGSLRLSCAASGSIFGRYAMGWYRQAPGKERELVAAITYRGGTTYYADSVKGRFTISRDNAKNTVYLQMNSLKPEDTAVYYCAAEGTWYYKYGYFAYYYWGQGTQVTVSS,low polyreactivity
10,QVQLVESGGGLVQAGGSLRLSCAASGSIFGRYGMGWYRQAPGKERELVAAITSGTRTNYADSVKGRFTISRDNAKTTVYLQMNSLKPEDTAVYYCNALRLRGNYEYGYWGQGTQVTVSS,low polyreactivity
11,QVQLVESGGGLVQAGGSLRLSCAASGSIFGRYVMGWYRQAPGKERELVAAISTSGDSTYYADSVKGRFTISRDNAKNTVYLQMNSLKPEDTAVYYCNARKRTFPSRSIGGDYWGQGTQVTVSS,high polyreactivity
12,QVQLVESGGGLVQAGGSLRLSCAASGSIFGSNAMGWYIQAPGKERELVAAITWSDGSTYYADSVKGRFTISRDNAKNTVYLQMNSLKPEDTAVYYCAADSWWGIYYSGYDYWGQGTQVTVSS,low polyreactivity
13,QVQLVESGGGLVQAGGSLRLSCAASGSIFGSYAMGWYRQAPGKERDLVAAISGSGGRTYYADSVKGRFTISRDNAKNTVYLQMNSLKPEDTAVYYCAAAYPRVTYKYGYYWGQGTQVTVSS,high polyreactivity
14,QVQLVESGGGLVQAGGSLRLSCAASGSIFGSYAMGWYRQAPGKERELVAAISSSGGSTYYADSVKGRFTISRVNAKNTVYFQMNSLKPEDTAVYYCNKYVRYGDGYWGQGTQVTVSS,high polyreactivity
15,QVQLVESGGGLVQAGGSLRLSCAASGSIFGSYAMGWYRQAPGKERELVAAISWRGGRTYYADSVKGRFTISRDNAKNTVYLQMNSLKPEDTAVYYCAAERHARSSYEYWGQGTQVTVSS,low polyreactivity
16,QVQLVESGGGLVQAGGSLRLSCAASGSIFGSYAMGWYRQAPGKERELVAAISYSGGTTYYADSVKGRFTISRDNAKNTVYLQMNSLKPEDTAVYYCNAPVAYQREYDYWGLGTQVTVSS,low polyreactivity
17,QVQLVESGGGLVQAGGSLRLSCAASGSIFGSYAMGWYRQAPGKERELVAGIRSGGSTYYADSVKGRFTISRDNAKNTVYLQMNSLKPEDTAVYYCAGHEEYWGQGTQVTVSS,low polyreactivity
18,QVQLVESGGGLVQAGGSLRLSCAASGSIFGSYAMGWYRQAPGKERELVAVITSSGNTKYADSVKGRFTISRDNAKNTVYLQMNSLKPEDTAVYYCAARFITWCSQYSFRSMDYWGQGTQVTVSS,high polyreactivity
19,QVQLVESGGGLVQAGGSLRLSCAASGSIFGTNAMGWYRQAPGKERELVAAIDGGSTTYYADSVKGRFTISRDNAKNTVYLQMNSLKPEDTAVYYCAADGSRYLNYEGYAGYEYWGQGTQVTVSS,low polyreactivity
20,QVQLVESGGGLVQAGGSLRLSCAASGSIFGTYAMGGYRQAPGKERELVAAITGNGGRTYYADSVKGRFTISRDNAKNTVYLQMNSLKPEDTAVYYCAKATSRRGFYYWGQGTQVTVSS,high polyreactivity
21,QVQLVESGGGLVQAGGSLRLSCAASGSIFGTYAMGWDRQARGQERALGAAIRWSSGSTYYADSVNGRFTISRDNATNTESLQMNSLKPADTAVYYCNAEYVYYWLGATFGYWGQGTQVTVSS,high polyreactivity
22,QVQLVESGGGLVQAGGSLRLSCAASGSIFGTYAMGWYRQAPGKERELVAAITTSAGSTYYADSVKGRFTISRDNAKNTVYLEMNSLKPEDTAVYYCAKYAYTSVHSWYYYWGQGTQVTVSS,high polyreactivity

row,Sequence,polyreactivity (PSR sort gate)
1,QVQLVESGGGLVQAGGSLRLSCAASGSIFGVNAMGWYRQAPGKERELVASITGGDSTNYADSEKGRFTISRDNAKNTVYLQMNSLKPEDTAVYYCAKDHYYRYEEGDYWGQGTQVTVSS,low polyreactivity
2,QVQLVESGGGLVQAGGSLRLSCAASGSIFGVNAMGWYRQAPGKERELVATIRQRGTSTYNADSVKGRFTISRDTAKNTVYLQMNSLKPEDTAVYYCAARGGVLKGYYYWGQGTQVTVSS,high polyreactivity
3,QVQLVESGGGLVQAGGSLRLSCAASGSIFGVNAMGWYRQAPGKERELVATITWRTGSTYYADSVKGRFTISRDNAKNTVYLQMNSLKPEDTAVYYCAAEDYTEFDYWGQGTQVTVSS,low polyreactivity
4,QVQLVESGGGLVQAGGSLRLSCAASGSIFGVNDMGWYRQAPGKERELVAGISSSGGSTYDADSVMGRFTISRDNAKNTVYLQMNSLKPEDTAVYYCAARKLYRPRGRRVGYWGQGTQVTVSS,low polyreactivity
5,QVQLVESGGGLVQAGGSLRLSCAASGSIFGVYAIGWYRQAPGKERELVATISWSAGSTYYADSVKGRFTISRDNAKNTVYLQMNSLKPEDTAVYYCAAGVRWLGLYDLFTFDYWGQGTQVTVSS,low polyreactivity
6,QVQLVESGGGLVQAGGSLRLSCAASGSIFGVYAMGRYIQAPRKERELVASISRGGSTNYADSVKGRFTISRDNAKNTVYLQMKSLKPEDTAVYYCASDGVYQGWTWLYGLRYNYWGQGTQVTVSS,low polyreactivity
7,QVQLVESGGGLVQAGGSLRLSCAASGSIFGVYAMGWYRPAPGKERELVAVIRWRGGSTYYADSVKGRFTISRDNAKNTVYLQMNSLKPEDTAVYYCAARRHIVVATYDRRYDYWGQGTQVTVSS,low polyreactivity
8,QVQLVESGGGLVQAGGSLRLSCAASGSIFGVYAMGWYRQAPGKERELVAAISWSGTSTYYADSVKGRFTISRDNAKNTVYLQMNSLKPEDTAVYYCNADWVLDGYDYDYWGQGTQVTVSS,low polyreactivity
9,QVQLVESGGGLVQAGGSLRLSCAASGSIFGVYAMGWYRQAPGKESELVATITWRGGSTYYADSVKGRFTISRDNAKNTVYLQMNSLKPEDTSVYYCNARYKWGYYSRYDYWGQGTQVTVSS,high polyreactivity
10,QVQLVESGGGLVQAGGSLRLSCAASGSIFGVYTMGWYRQAPGKERELVAAITSAGSTYADSVKGRFTISRDKAKNTVYLQMNSLKPEDTAVYYCNAQSVLLSLRVELREPHEYWGQGTQVTVSS,low polyreactivity
11,QVQLVESGGGLVQAGGSLRLSCAASGSIFGWNAMGWYRQAPGKERELVAAINWTGGTTYYADSVKGRFTISRDNEKNTVYLQMNSLKPEDTAVYYCAARLTYHVAGQMTRYYYWGQGTQVTVSS,low polyreactivity
12,QVQLVESGGGLVQAGGSLRLSCAASGSIFGWYAMGWYRQAPGKERELVAAISGSGGSTYYADSVKGRFTISRDTAKNTVYLQMNSLKPEDTAVYYCNAYRRVGTSEYWGQGTQVTVSS,high polyreactivity
13,QVQLVESGGGLVQAGGSLRLSCAASGSIFGWYAMGWYRQAPGKERELVAAITFSSVSTYYADSVKGRFTISRDTAKNTVYLQMNSLKPEDTAVYYCAAVVYYTFDYWGQGTQVTVSS,low polyreactivity
14,QVQLVESGGGLVQAGGSLRLSCAASGSIFGYNAMGWYRQAPGKEREFVAAIRWSSGSTYYADSVKGRFTISRDNAKNTVYLQMNSLKPEDTAVYYCATRQTYLYWGQGTQVTVSS,high polyreactivity
15,QVQLVESGGGLVQAGGSLRLSCAASGSIFGYNAMGWYRQAPGKERELDAAISISDGSTYYADSVKGRFTISRDNAKNTVYFQMNSLKPEDTAVYYCAAPRDLSGYGNFGNGPFYYWGQGTQVTVSS,low polyreactivity
16,QVQLVESGGGLVQAGGSLRLSCAASGSIFGYNAMGWYRQAPGKERELVAAIRISTDNTYYADSVKGRFTISRDNAKNTVYLQMNSLKPEDTAVYYCAADEYWWGYYYWGQGSQVTVSS,high polyreactivity
17,QVQLVESGGGLVQAGGSLRLSCAASGSIFGYNAMGWYRQAPGKERELVAAISGGGGTYYADSVKGRFTISRDNAKNTVYLQMNSLKPEDTAVYYCATDRGHKWLFYGTYYRYEYWGQGTQVTVSS,low polyreactivity
18,QVQLVESGGGLVQAGGSLRLSCAASGSIFGYNAMGWYRQAPGKERELVAAISGGGGTYYADSVKGRFTISRDNAKNTVYLQMNSLKPEDTAVYYCATDRVHKWLFYGTYYRYEYWGQGTHVTVSS,low polyreactivity
19,QVQLVESGGGLVQAGGSLRLSCAASGSIFGYNAMGWYRQAPGKERELVAAISYSGGRTYYADSVKGRFTISRDNAKNTVYLQMNSLKPEDTAVYYCAKYKVGYVPSGYRYDSWGQGTQVTVSS,high polyreactivity
20,QVQLVESGGGLVQAGGSLRLSCAASGSIFGYNAMGWYRQAPGKERELVAAITSIGGNTYADSVKGRFTISRDNAKNTVYLQMNSLKPEDTAVYYCAAERNTDPIQVVYEFDYWGQGTQVTVSS,low polyreactivity
21,QVQLVESGGGLVQAGGSLRLSCAASGSIFGYNAMGWYRQARGKERELVAAITSSGGSTYYADSVKGRFTISRDNSKNTVYLQMKSLKPEDTAVYYCNARDWYIVWYDYWGQGTQVTVSS,low polyreactivity
